Experimental data: the NTF2 design screens of Basanta et al. (2020)

Assay: protease stability score; higher = more stable; yeast display proteolysis, trypsin and chymotrypsin;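 further: relative to predicted unfolded state with 0 unfolded-like and 1 meaning tenfold more protease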

Row | Sequence | protease stability score
1 | SEDEELAESFSRLFFEAEETGDEESLLEMADPNVRVHIDGREIHGREEWIKHLRTFGVERIRIHMRHVEIQGDKLRLDLIVHQGDKTVRIEITIKKVDGRWVVHSIHWS | 0.868
2 | SEDEELAKEFAETMLHWEITGNEEAIRRNMDPNTKLDINGQHYIGRDDVLRVWHEIKKRLGVDHLEIHHIRVSVIGDKIRIEIDGHIRVNGREIETHIVIITEKINGKWIIRSMRYEFK | 1.24
3 | SEDEELAKRIAKLWIELHLTGNEDTIKQLMDPRVLVRIHINGVDIHLHGREHVIRHHRETMKHLGWSKVHLELKDSKFIGEYLHMDVRMNVNGQEHHVELEIIVINGRMKEIRINIE | 2.02
4 | SEDEELAQTFLELWVHFLRTGDESMLEQYIDPHARFKVGDKEDHGMKVFKDLLHHIRIEDFRVHHVEIRIVGEWIEIRMDITLHGRVDGVRDTKRVHVHINAEKYNGRWRIKELEIRHR | 1.74
5 | SEDEELARIIMHLLEHATKTGDERILRKLLDPHVKIRVNGKDLIGWEEEHRRHEKLGADHLHLELIFKDWEFVGDYIKVHGEMRVRVNQGDKTDERNYEVRFYLLKVNGRWILESIQIH | 2.63
6 | SEDEELEKVFLRILKEILTTGDEDTLRFLLDPNARMHVGDKELHGWSNVYEQINQLRIKDYELRDFKRVGDKVDFDGRNHGHFNGRDVEHRARLIIQKIDGRWFIHANIIE | 0.626
7 | SEDEELFKRAIEKLIHDLLTGNFEMLEHLLDPHTRVDFNGKIMHGREFVEDIRERFPNLKLELRIDDSSVINGRANIIGTLHFNVNGKFSTHEVHYHVNKFNGKWYIEEVRIK | 1.32
8 | SEDEELIRRFLDEFEKVIRTGNETELQRLMDPNTRFEIDGVEYHGREEVSNLLIDWAKELRLHSLHFRHIELQGEKIKIDTRENREVDGKRHVRRTEIILIKIDGRWYLHSMRYE | 1.98
9 | SEDEELLHKVLNEFIHNVKTGDWEIITRLLDPHALLRVNGVNHIGREDLDRQLKKDFQEMRLHNIHVDDLKIQGEWIHVDTTLDIHINGVRVHFKAHIRVLKIDGRWIVHSREIR | 1.32
10 | SEDEELLKKFFERLLHALRTGDEDHLRTLIDPHARLIQGDKHYIGREQLEHSLHIILSHIRFEHHDSRREEIQGDKAIVHSHLIVRQGDKTYRLDVTFHLEKVNGRWVIREVDLN | 1.33
11 | SEDEELLRESVRIFREAMRTGDEEFSERMIDPNVRIHIGDKEYIGREWASEWHKRLGIKHSRFRHIEIQGDFMIADVENKVGDKHIQVEYWRHKINGRWIIESIKVH | 1.55
12 | SEDEELMKKVFEIFLNHLETGDWRELEKLLDPHAQLNIDGRDYHGWDKITEEMRKLGMTMHSELEHVRFQGDKIDLKGYVKVRIGDKEIRRSTRYVALKVDGRWEERSIILL | 1.41
13 | SEDEELMRRAEDFIIETWETGDWELLHHLADPRVQLDINGRTEHGRENMNEALRRWLDDLGFDHHRVRKKHVIDGRVILDFEIFQGDKEVHLHLHNVVVNGRMKSVHFKLQDN | -0.052
14 | SEDEELRQIAVEFILHILWTGDEELLYKYFDPHVRSDINGRRTHGRENMLRAIREMMRKIKGIQLTSLHITDIEIIGDYLNIDGHFRLNYDGKETDLSLKIDIFKINGKWSIHAISYR | 2.08
15 | SEDEELSKKAVEDILRNLETGDWETISRMADPHVRVDFNGVDIHGREVMSKMFEDELRDLGVTKVDVRLHDVDSQGDKVIVHHRVHVNGRTEEVEVHATKFNGKWVIKKMTVRVK | 1.19
16 | SEDEELSKYLNEEINEILRTGDEDRWKELADPNTLLIIDGREFHGMELVIHLLHHLWKRLGIDQIHSTVEDEKVQGDKIIFHHRLEYNGRESHVIIISHKFNGRWRAKRVEVN | 1.43
17 | SEDEELSQKALEMVKHSSDTGDEKTTRQLMDPNYRMVIGDYELHGWELVVDFVRHARYDDLIMRRWDSQGDKIHLDGETIVNVGDKILHTRVRLIALKVNGQWKLNSVIFH | 0.149
18 | SEDEELSRIISHLEVDLVHTGDEDTMRKLFDPNAKSHIHVGEYNIESHGREWISILWTDLGADHRELDEIQTDVQGDKVFVNMDLTMDVDGVSHRMFIQFVSVKVDGRWTIKEINVSVI | 1.81
19 | SEDEELTNKMRHLFLHAVRTGDETVLNRLIDPNTKLHINGVDIHGREEVRTLLREMRRHEFRTRTVEIRVIDGRVEVREDVERNGVVNGQEYETRVIIIYHAVKVDGKWVWTEIRFEER | 0.609
20 | SEDEELVDHAWETYLRNLLTGDERTLADLIDPHVRVHINGVEFIGREELIKWLSEIRIRTIRVRRRSLINGRVEIIVDLELQVGDKHDRVTIYLIMDKFDGRWIHHTFSVE | 0.41
21 | SEDEELVELMMKLIMELRKTGDEESIRRLADPNVRLDFNGRDNHGREHATKWIRDIVEHLRLRRFEIHNVEFQGNKAVVRSRIIMDWDGQDFHLDVIIILNKFNGRWFIHSQIVH | 1.49
22 | SEDEELVERAIRWLESILQTGDEHVLEHFADPHVRVTVGDYDDHGRHAIHTVWRLMGVNHSEIKRKDIQVVNGVIYIHLDGVSRVNGRNFKLSIHVILEKIDGRWHVRTLHVDIK | 1.05
23 | SEDEELVERALQEFLEHLETGDFETLRDQVDPNARVDIDGRERIGRHDILKHWEEWRWHEIKLKHVEFQGDFVHLDGKVRITIDGKEISTHVKILVYKVNGRWLMKELRIG | 2.27
24 | SEDEELVHHIIKLWLESLVTGDERVFEELADPNVLLVVGEKTHHGRELYSEMFEILVTEIRFHEVHIRHYRHQGDKVKLDLRIDGEIDGQKTHDKAHIILHKIDGRWQLRSMIIH | 1.33
25 | SEDEELVRKATEDFINMHRTGDEDELRKMMDPDDKLRIGDKEVIGREAVITWLMEWLKKMGVNHIRFHRVHLFDGKIHVDGELHIGDKEFEIHIFALKINGRWIRESEEIK | 1.39

Row | Sequence | protease stability score
26 | SEDEELVRRAVHRFIKLLETGDWDKIQNNVDPHVRLHVDGVDFIGRELFIHWVDRVKGMRHDIRDVRIEFHGDKAHIDMVTELEIGDKRRETRVHLVMRKINGRWIIESEEYRII | 2.64
27 | SEDEEMAKESVEHVIHALETGDFELFHKMADPSVQLDIDGREFIGWEEVRKHLEELRIERVHIRRLHIELINGQVRSTSDIEMDIRIGDYKIRTEVKVHIIIDKVNGRWRLRSMKIINH | 1.57
28 | SEDEEMARRFFEHLLHLWRTGDEEILRNLVDPDTQMQIGDKHLHGRDAVEHMIRRIDHVEVRKVRMREIRVQGDYVVIHVELDGTQEVNGKRIEQHIEFTVFVHKVDGRWIWRSIYQI | 1.37
29 | SEDEEMIRELAEIFIKNWETGDEEDRWKLMDPNARIEVNGKQNHGREEDERHSKELGFKHIEVRIKRSRIVGDKAEIDGELYMRYDGKTEHVKVHIHVQIVDGRIKIVSFKIR | 1.31
30 | SEDEEMLRKILELLVESLLTGDWKTVARLADPHVRLEIGDKIFHGRERFIDHLKLLGIDHIEIRLRDMKIIGDKLDTEVEVVERVGDKEIHRDTTLHIRKVNGRWLIKKVILE | 2.01
31 | SEDEEMLRLAWEIHREILDTGDWKMFEELADPHTRIEVGEYINVGRETASKFILDNVRKIKNMRLHVHEHRTIDGKLEIHLRVNVNGQHRTLFLFASKFDGVWIITSVVVEIR | 1.18
32 | SEDEEMLRRIIEELNRAHKTGNWRRIAELMDPDVRLIIGDKENHGRSVLIEWLKRIDHIEVESVDIHHIDSQGDKIILHGQVHLINVYNGVEVQENRDMTVILIKVDGRWFFHSIRVR | 2.56
33 | SEDEEMNRLAIELLLRYMRTGDEHKLEELADPNVRIEVGDKESVGREVFLRFWMHLKKKLGIDVVEIELHEIKHYDGRVHSDTRFIMNVNGVEYRRDTEVVAHKVDGKWMLEHVHVE | 0.92
34 | SEDEEMSHNIAKMWVDALMTGDEEVLHNLADPRVRLDINGVIVHGREEFTKTMEDKLRHMRIHHINIRDIDIQGDYVRVDVRSDIFVDGKRHHVTTTLIIFKVNGRWLLHEIVVR | 1.95
35 | SEDEEMSKEASEWMLEIILTGDEDSLRKLLDPDYRLHVDGQEFHGRENVVKAFMEWLQRFGIKHIHLEDTRIEVQGDKVIVHERTHVDVNGKKTETELFLIALKFDGKWMTHSIEIRYE | 2.09
36 | SEDEEMTKKMVEELNHNLLTGDEERLKKQADPNAKVHQGEYNLVGMDQFVRLIKEWRIHHVDMRDIRIFDGVAFIDFEEDIEIDGVRIQTRTHIIILKVNGRWRFKQWEMR | 0.862
37 | SEDEEMTRKYFERYIRWLVTGDPKLLSELVDPNVKLIYNGRHLHGREFLVEWEMEILREARLHSVHVRDVKLFNGRLRMDVEINIEIGDKKSVVESNIVALKVNGRWVLESYEVD | 1.42
38 | SEDEEMVEKAHQIEKESLETGDEKMILDLLDPNVRIRVDGVDFHGWEHAEKLLRELRIERVNLRSFTWQGDFLRLDGELTFDYNGKKIRTKVRIYADKVDGRWFHKSHEVT | 1.1
39 | SEDEENAERFIQHWVHNMETGNEERLFELADPNVRLDVNGRDLIGREEFQKSMRWLINRVKNITVRVDKVTIQGNKLLVHTEVRVGDKHHETELIFLKVDGRWRIHEMRIV | 1.52
40 | SEDEENAKFVLHELYKADETGDERKQSHMMDPNVRIIVGDKEWVGRDEVVELMHEIRVHRVHIDDFRFQGDKIEVHGTTKGEFNGKRDVYHVHWLILKIDGRWRLQSLEVR | 1.11
41 | SEDEENIKRHLEIWFTALKTGDEDTSRRMIDPNARFQVGDKHEHGMDSLVRELLREWKERGIELKSIRTTEIHIQGDKIFLNSRRDVLVNGVRIILETEIRFLKVDGRWLITEVSER | 1.22
42 | SEDEENIRRIIRRFVHTFETGDEDIMRELADPHVRLIFNGQHYIGREWVVEIMSEHVKRADHTEVHIHEIHIIGDKVKVHSRLHINVDGVFRNIELRIDIMKVNGRWLIHHVEFR | 1.48
43 | SEDEENVEKFVRELIHNSRTGDEEKFMSLLDPNTRIHVDGRTFHGMELASEALKLLGVKVFHVHRIKVVGEWAHVDGEVNFNGKDHKVSFHSRKVNGQWLLESVEIQ | 1.22
44 | SEDEEQAEHFLRLLVEALVTGDEDKIMKLIDPNVRLEAEGHDHHGRELFVKFWMELRVKEVQIEDVKLWNGRVRFDVRFDGTFNGKRFESTSHIILTKINGKWVLKKVEMR | 0.106
45 | SEDEEQAERFARELIEVLRTGNEELLTHLLDPNTMLRVNGVEHHGREAYLHYTREMRYHHIDIEHFDVQGDKLYLHNRMDGQVDGRRVDVRIRIQVEKVNGRWKLRQERHQ | 0.524
46 | SEDEEQARHFVEMLEHVERTGDWRELEKLVDPHVIMDIDGVRHHGRHEVVDLSKKLGVDHVSLEHLEVQGDKAIIHFNMHVNGVEMHHHVDTRKVNGRWLNERIILK | 0.488
47 | SEDEEQMKRFLDHWIHFLQTGDEEESNKLADPHTRMEIGDFELHGREEYRKWFRHIIERVDHTDVRTKDSDIVNGVAIHDIEIHIEVGDKRIRRKSEMVVLKVDGRWYIQRMHFI | 0.846
48 | SEDEEQSRHAFELWVRAYLTGNEEFLEKNADPNTRFIVGDKHIHGRELVFEFLKRIIDRRGMEIKDIKMRDMRVIGEKIEVDTTLHQHYNGVDFDHQIHFIMIKIDGKWKIKTIEIR | 1.43
49 | SEDEERARRFFEELIHVLHTGDEDSLIKMADPSVRLDFNGVEAVGREEFERMFKEIWREIRLEDLTSHHIDVFNGRIRIESKSHIEVNGVQITRDELVIVTKINGKWHLHSREVK | 1.56
50 | SEDEERLRKFAEHMVNLWFTGNENELTKLIDPDTRIDIDGKELHGMELAFRVLQEHLEKLGVKHQEVRDVEIYGDKFILHWTLHVGDFTLRMEVRIVVINGRVKSMEFRTDHR | 1.89
